Columns and labels:
Assay in all cases: co-IP; HEK293 cells co-transfected with AnkB-220-HA (WT or mutant) and NrCAM plasmids in equimolar amounts; Brij98 lysate diluted in PBS, 0.1% TritonX-100; AnkB-HA precipitated with mouse anti-HA on Protein A/G magnetic beads overnight at 4 °C; blot for NrCAM, reprobed with anti-HA; NrCAM/AnkB ratio by densitometry
[1] = target: AnkB-220-HA A373V (maternally inherited ASD missense mutation) (human)
[2] = target: AnkB-220-HA R308E (human)
[3] = target: AnkB-220-HA R297E (human)
[4] = target: AnkB-220-HA H374A (human)
[5] = target: AnkB-220-HA H374W (human)

fold increase of co-immunoprecipitation compared to WT AnkB [1]: 1.7 fold | percent decrease of co-immunoprecipitation compared to WT AnkB [2]: 90% | percent decrease of co-immunoprecipitation compared to WT AnkB [3]: 60% | percent decrease of co-immunoprecipitation compared to WT AnkB [4]: 80% | percent decrease of co-immunoprecipitation compared to WT AnkB [5]: 80%
Substance: Neuron-glial related L1-CAM (NrCAM), mouse, WT (natural protein)
